For this data set, the system named is Dbv29. In words: Relative enzymatic activities of Dbv29 mutants. The class given is biochemical, Nonomuraea sp. ATCC39727. The following applies: for Relative activity: relative to WT.

B1: W399A (protein)
chain: MTGGTGADAASAGASSTRPELRGERCLPPAGPVKVTPDDPRYLNLKLRGANSRFNGEPDYIHLVGSTQQVADAVEETVRTGKRVAVRSGGHCFEDFVDNPDVKVIIDMSLLTEIAYDPSMNAFLIEPGNTLSEVYEKLYLGWNVTIPGGVCGGVGVGGHICGGGYGPLSRQFGSVVDYLYAVEVVVVNKQGKARVIVATRERDDPHHDLWWAHTGGGGGNFGVVTKYWMRVPEDVGRNPERLLPKPPATLLTSTVTFDWAGMTEAAFSRLLRNHGEWYERNSGPDSPYTGLWSQLMIGNEVPGMGESGFMMPIQVDATRPDARRLLDAHIEAVIDGVPPAEVPEPIEQRWLASTPGRGGRGPASKTKAGYLRKRLTDRQIQAVYENMTHMDGIDYGAVALIGYGGKVNTVDPAATALPQRDAILKVNYITGWANPGNEAKHLTWVRKLYADVYAETGGVPVPNDVSDGAYINYPDSDLADPGLNTSGVPWHDLYYKGNHPRLRKVKAAYDPRNHFHHALSIRP
With B1, the “catalytic activity” value is listed as “no product was produced”.

B2: H91A (protein)
chain: MTGGTGADAASAGASSTRPELRGERCLPPAGPVKVTPDDPRYLNLKLRGANSRFNGEPDYIHLVGSTQQVADAVEETVRTGKRVAVRSGGACFEDFVDNPDVKVIIDMSLLTEIAYDPSMNAFLIEPGNTLSEVYEKLYLGWNVTIPGGVCGGVGVGGHICGGGYGPLSRQFGSVVDYLYAVEVVVVNKQGKARVIVATRERDDPHHDLWWAHTGGGGGNFGVVTKYWMRVPEDVGRNPERLLPKPPATLLTSTVTFDWAGMTEAAFSRLLRNHGEWYERNSGPDSPYTGLWSQLMIGNEVPGMGESGFMMPIQVDATRPDARRLLDAHIEAVIDGVPPAEVPEPIEQRWLASTPGRGGRGPASKTKAGYLRKRLTDRQIQAVYENMTHMDGIDYGAVWLIGYGGKVNTVDPAATALPQRDAILKVNYITGWANPGNEAKHLTWVRKLYADVYAETGGVPVPNDVSDGAYINYPDSDLADPGLNTSGVPWHDLYYKGNHPRLRKVKAAYDPRNHFHHALSIRP
Regarding B2, the “activity relative to WT” value is given as 11% and the Relative activity worked out at 0.11.

B3: H91A/C151A (protein)
chain: MTGGTGADAASAGASSTRPELRGERCLPPAGPVKVTPDDPRYLNLKLRGANSRFNGEPDYIHLVGSTQQVADAVEETVRTGKRVAVRSGGACFEDFVDNPDVKVIIDMSLLTEIAYDPSMNAFLIEPGNTLSEVYEKLYLGWNVTIPGGVAGGVGVGGHICGGGYGPLSRQFGSVVDYLYAVEVVVVNKQGKARVIVATRERDDPHHDLWWAHTGGGGGNFGVVTKYWMRVPEDVGRNPERLLPKPPATLLTSTVTFDWAGMTEAAFSRLLRNHGEWYERNSGPDSPYTGLWSQLMIGNEVPGMGESGFMMPIQVDATRPDARRLLDAHIEAVIDGVPPAEVPEPIEQRWLASTPGRGGRGPASKTKAGYLRKRLTDRQIQAVYENMTHMDGIDYGAVWLIGYGGKVNTVDPAATALPQRDAILKVNYITGWANPGNEAKHLTWVRKLYADVYAETGGVPVPNDVSDGAYINYPDSDLADPGLNTSGVPWHDLYYKGNHPRLRKVKAAYDPRNHFHHALSIRP
On to B3, for which the “activity relative to WT” value stood at 5% and the Relative activity was 0.05.

B4: Y165F/Y473F (protein)
chain: MTGGTGADAASAGASSTRPELRGERCLPPAGPVKVTPDDPRYLNLKLRGANSRFNGEPDYIHLVGSTQQVADAVEETVRTGKRVAVRSGGHCFEDFVDNPDVKVIIDMSLLTEIAYDPSMNAFLIEPGNTLSEVYEKLYLGWNVTIPGGVCGGVGVGGHICGGGFGPLSRQFGSVVDYLYAVEVVVVNKQGKARVIVATRERDDPHHDLWWAHTGGGGGNFGVVTKYWMRVPEDVGRNPERLLPKPPATLLTSTVTFDWAGMTEAAFSRLLRNHGEWYERNSGPDSPYTGLWSQLMIGNEVPGMGESGFMMPIQVDATRPDARRLLDAHIEAVIDGVPPAEVPEPIEQRWLASTPGRGGRGPASKTKAGYLRKRLTDRQIQAVYENMTHMDGIDYGAVWLIGYGGKVNTVDPAATALPQRDAILKVNYITGWANPGNEAKHLTWVRKLYADVYAETGGVPVPNDVSDGAYINFPDSDLADPGLNTSGVPWHDLYYKGNHPRLRKVKAAYDPRNHFHHALSIRP
Regarding B4, the “catalytic activity” value was “total loss of catalytic activity”.

B5: T366A (protein)
chain: MTGGTGADAASAGASSTRPELRGERCLPPAGPVKVTPDDPRYLNLKLRGANSRFNGEPDYIHLVGSTQQVADAVEETVRTGKRVAVRSGGHCFEDFVDNPDVKVIIDMSLLTEIAYDPSMNAFLIEPGNTLSEVYEKLYLGWNVTIPGGVCGGVGVGGHICGGGYGPLSRQFGSVVDYLYAVEVVVVNKQGKARVIVATRERDDPHHDLWWAHTGGGGGNFGVVTKYWMRVPEDVGRNPERLLPKPPATLLTSTVTFDWAGMTEAAFSRLLRNHGEWYERNSGPDSPYTGLWSQLMIGNEVPGMGESGFMMPIQVDATRPDARRLLDAHIEAVIDGVPPAEVPEPIEQRWLASTPGRGGRGPASKAKAGYLRKRLTDRQIQAVYENMTHMDGIDYGAVWLIGYGGKVNTVDPAATALPQRDAILKVNYITGWANPGNEAKHLTWVRKLYADVYAETGGVPVPNDVSDGAYINYPDSDLADPGLNTSGVPWHDLYYKGNHPRLRKVKAAYDPRNHFHHALSIRP
B5: the “activity relative to WT” value is listed as 11% and the Relative activity is listed as 0.11.

B6: I401A (protein)
chain: MTGGTGADAASAGASSTRPELRGERCLPPAGPVKVTPDDPRYLNLKLRGANSRFNGEPDYIHLVGSTQQVADAVEETVRTGKRVAVRSGGHCFEDFVDNPDVKVIIDMSLLTEIAYDPSMNAFLIEPGNTLSEVYEKLYLGWNVTIPGGVCGGVGVGGHICGGGYGPLSRQFGSVVDYLYAVEVVVVNKQGKARVIVATRERDDPHHDLWWAHTGGGGGNFGVVTKYWMRVPEDVGRNPERLLPKPPATLLTSTVTFDWAGMTEAAFSRLLRNHGEWYERNSGPDSPYTGLWSQLMIGNEVPGMGESGFMMPIQVDATRPDARRLLDAHIEAVIDGVPPAEVPEPIEQRWLASTPGRGGRGPASKTKAGYLRKRLTDRQIQAVYENMTHMDGIDYGAVWLAGYGGKVNTVDPAATALPQRDAILKVNYITGWANPGNEAKHLTWVRKLYADVYAETGGVPVPNDVSDGAYINYPDSDLADPGLNTSGVPWHDLYYKGNHPRLRKVKAAYDPRNHFHHALSIRP
For the molecule B6, the Relative activity came to 0.09.

B7: C161A (protein)
chain: MTGGTGADAASAGASSTRPELRGERCLPPAGPVKVTPDDPRYLNLKLRGANSRFNGEPDYIHLVGSTQQVADAVEETVRTGKRVAVRSGGHCFEDFVDNPDVKVIIDMSLLTEIAYDPSMNAFLIEPGNTLSEVYEKLYLGWNVTIPGGVCGGVGVGGHIAGGGYGPLSRQFGSVVDYLYAVEVVVVNKQGKARVIVATRERDDPHHDLWWAHTGGGGGNFGVVTKYWMRVPEDVGRNPERLLPKPPATLLTSTVTFDWAGMTEAAFSRLLRNHGEWYERNSGPDSPYTGLWSQLMIGNEVPGMGESGFMMPIQVDATRPDARRLLDAHIEAVIDGVPPAEVPEPIEQRWLASTPGRGGRGPASKTKAGYLRKRLTDRQIQAVYENMTHMDGIDYGAVWLIGYGGKVNTVDPAATALPQRDAILKVNYITGWANPGNEAKHLTWVRKLYADVYAETGGVPVPNDVSDGAYINYPDSDLADPGLNTSGVPWHDLYYKGNHPRLRKVKAAYDPRNHFHHALSIRP
In turn, B7 came in with a Relative activity of 0.84.

B8: C151A (protein)
chain: MTGGTGADAASAGASSTRPELRGERCLPPAGPVKVTPDDPRYLNLKLRGANSRFNGEPDYIHLVGSTQQVADAVEETVRTGKRVAVRSGGHCFEDFVDNPDVKVIIDMSLLTEIAYDPSMNAFLIEPGNTLSEVYEKLYLGWNVTIPGGVAGGVGVGGHICGGGYGPLSRQFGSVVDYLYAVEVVVVNKQGKARVIVATRERDDPHHDLWWAHTGGGGGNFGVVTKYWMRVPEDVGRNPERLLPKPPATLLTSTVTFDWAGMTEAAFSRLLRNHGEWYERNSGPDSPYTGLWSQLMIGNEVPGMGESGFMMPIQVDATRPDARRLLDAHIEAVIDGVPPAEVPEPIEQRWLASTPGRGGRGPASKTKAGYLRKRLTDRQIQAVYENMTHMDGIDYGAVWLIGYGGKVNTVDPAATALPQRDAILKVNYITGWANPGNEAKHLTWVRKLYADVYAETGGVPVPNDVSDGAYINYPDSDLADPGLNTSGVPWHDLYYKGNHPRLRKVKAAYDPRNHFHHALSIRP
Consider B8, for which the “activity relative to WT” value came out at 23% and the Relative activity came out at 0.23.

B9: T366E (protein)
chain: MTGGTGADAASAGASSTRPELRGERCLPPAGPVKVTPDDPRYLNLKLRGANSRFNGEPDYIHLVGSTQQVADAVEETVRTGKRVAVRSGGHCFEDFVDNPDVKVIIDMSLLTEIAYDPSMNAFLIEPGNTLSEVYEKLYLGWNVTIPGGVCGGVGVGGHICGGGYGPLSRQFGSVVDYLYAVEVVVVNKQGKARVIVATRERDDPHHDLWWAHTGGGGGNFGVVTKYWMRVPEDVGRNPERLLPKPPATLLTSTVTFDWAGMTEAAFSRLLRNHGEWYERNSGPDSPYTGLWSQLMIGNEVPGMGESGFMMPIQVDATRPDARRLLDAHIEAVIDGVPPAEVPEPIEQRWLASTPGRGGRGPASKEKAGYLRKRLTDRQIQAVYENMTHMDGIDYGAVWLIGYGGKVNTVDPAATALPQRDAILKVNYITGWANPGNEAKHLTWVRKLYADVYAETGGVPVPNDVSDGAYINYPDSDLADPGLNTSGVPWHDLYYKGNHPRLRKVKAAYDPRNHFHHALSIRP
In the case of B9, the “activity relative to WT” value is on record as 5% and the Relative activity was determined as 0.05.

B10: W399F (protein)
chain: MTGGTGADAASAGASSTRPELRGERCLPPAGPVKVTPDDPRYLNLKLRGANSRFNGEPDYIHLVGSTQQVADAVEETVRTGKRVAVRSGGHCFEDFVDNPDVKVIIDMSLLTEIAYDPSMNAFLIEPGNTLSEVYEKLYLGWNVTIPGGVCGGVGVGGHICGGGYGPLSRQFGSVVDYLYAVEVVVVNKQGKARVIVATRERDDPHHDLWWAHTGGGGGNFGVVTKYWMRVPEDVGRNPERLLPKPPATLLTSTVTFDWAGMTEAAFSRLLRNHGEWYERNSGPDSPYTGLWSQLMIGNEVPGMGESGFMMPIQVDATRPDARRLLDAHIEAVIDGVPPAEVPEPIEQRWLASTPGRGGRGPASKTKAGYLRKRLTDRQIQAVYENMTHMDGIDYGAVFLIGYGGKVNTVDPAATALPQRDAILKVNYITGWANPGNEAKHLTWVRKLYADVYAETGGVPVPNDVSDGAYINYPDSDLADPGLNTSGVPWHDLYYKGNHPRLRKVKAAYDPRNHFHHALSIRP
Turning to B10, the “activity relative to WT” value is reported as 15% and the Relative activity is 0.16.

Values taken from patent US8951961B2, “Structural and mechanistic basis for novel compound biosynthesis using 4-electron hexose oxidase” (Academia Sinica, priority 2009, dated 2015).
